Assay results taken from PMC11851464, “Development of a Spectrophotometric Assay for the Cysteine Desulfurase from Staphylococcus aureus” (Antibiotics, 2025).

What was measured:
purified protein = substrate: N[C@@H](CS)C(=O)O; assay: purified protein; assay type: biochemical, Staphylococcus aureus; settings: pyridoxal-5′-phosphate (PLP) Cys displaces Lys250 and binds PLP to form Cys-aldimine; catalytic Cys389
[1] = substrate: N[C@@H](CS)C(=O)O; assay: Michaelis–Menten kinetics, Ala-NDA assay; assay type: biochemical, Bacillus subtilis; settings: pyridoxal-5′-phosphate (PLP)

B1: cysteine desulfurase SufS (SaSufS) (Staphylococcus aureus subsp. aureus USA300) (protein)
chain: MAEHSFDVNEVIKDFPILDQKVNGKRLAYLDSTATSQTPVQVLNVLEDYYKRYNSNVHRGVHTLGSLATDGYENARETVRRFINAKYFEEIIFTRGTTASINLVAHSYGDANVEEGDEIVVTEMEHHANIVPWQQLAKRKNATLKFIPMTADGELNIEDIKQTINDKTKIVAIAHISNVLGTINDVKTIAEIAHQHGAIISVDGAQAAPHMKLDMQEMNADFYSFSGHKMLGPTGIGVLFGKRELLQKMEPIEFGGDMIDFVSKYDATWADLPTKFEAGTPLIAQAIGLAEAIRYLERIGFDAIHKYEQELTIYAYEQMSAIEGIEIYGPPKDRRAGVITFNLQDVHPHDVATAVDTEGVAVRAGHHCAQPLMKWLNVSSTARASFYIYNTKEDVDQLINALKQTKEFFSYEF
In the case of B1, the Km (purified protein) is reported as 600 ± 170 µM, the kcat (purified protein) is reported as 0.0683 ± 0.00833 s⁻¹ and the kcat/Km (purified protein) is reported as 113 ± 45 M⁻¹ s⁻¹.

B2: cysteine desulfurase SufS (BsSufS) (Bacillus subtilis subsp. subtilis str. 168) (protein)
chain: MNITDIREQFPILHQQVNGHDLVYLDSAATSQKPRAVIETLDKYYNQYNSNVHRGVHTLGTRATDGYEGAREKVRKFINAKSMAEIIFTKGTTTSLNMVALSYARANLKPGDEVVITYMEHHANIIPWQQAVKATGATLKYIPLQEDGTISLEDVRETVTSNTKIVAVSHVSNVLGTVNPIKEMAKIAHDNGAVIVVDGAQSTPHMKIDVQDLDCDFFALSSHKMCGPTGVGVLYGKKALLENMEPAEFGGEMIDFVGLYESTWKELPWKFEAGTPIIAGAIGLGAAIDFLEEIGLDEISRHEHKLAAYALERFRQLDGVTVYGPEERAGLVTFNLDDVHPHDVATVLDAEGIAVRAGHHCAQPLMKWLDVTATARASFYLYNTEEEIDKLVEALQKTKEYFTNVF
With B2 the Km [1] was 440 ± 190 µM, the kcat [1] was 0.0817 ± 0.0117 s⁻¹ and the kcat/Km [1] was 185 ± 107 M⁻¹ s⁻¹.
